The target in this experiment is human β2 microglobulin (Homo sapiens, UniProt P61769).
human β2 microglobulin, sequence (P61769 21-119): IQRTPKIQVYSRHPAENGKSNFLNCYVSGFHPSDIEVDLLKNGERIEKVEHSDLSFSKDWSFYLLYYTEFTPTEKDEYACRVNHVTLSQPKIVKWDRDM

B1: CNb1 (VHH)
chain: QVQLQESGGGSVQAGGSLRLSCAASRCWFRQAPGKEREWVARYYADSVKGRFTFSQDNAKNTVYLQMDSLEPEDTATYYCCWGQGTQVTVSS
For the molecule B1, the Kd amounted to 46 nM.

By Kd is commonly meant a measure of binding affinity in units of concentration.

The record behind these values is PMC6720793 (Molecules, 2019).
